The term stoichiometry N denotes a count of units in the complex or per binding partner.

In paper PMC2978108 one finds stoichiometry N data, which are given here for 1 substance.

In this experiment the target is recombinant GRD domain of GAPA (37 kDa GRD polypeptide) (D. discoideum). In words: SEC; analytical gel filtration on Sephadex G75 (SMART system) of the purified GRD domain; OD280. In general terms: Size exclusion chromatography separates by hydrodynamic size, large species first.

Consider “recombinant GRD domain of GAPA (37 kDa GRD polypeptide) (domain or fragment)”, for which the stoichiometry N was found to be 3.
